Laboratory results published in article PMC3384336 (Nucleic Acids Research, 2012).

T1: RNA polymerase I subunit A135 (Saccharomyces cerevisiae, UniProt P22138 1-1203)
T1 sequence: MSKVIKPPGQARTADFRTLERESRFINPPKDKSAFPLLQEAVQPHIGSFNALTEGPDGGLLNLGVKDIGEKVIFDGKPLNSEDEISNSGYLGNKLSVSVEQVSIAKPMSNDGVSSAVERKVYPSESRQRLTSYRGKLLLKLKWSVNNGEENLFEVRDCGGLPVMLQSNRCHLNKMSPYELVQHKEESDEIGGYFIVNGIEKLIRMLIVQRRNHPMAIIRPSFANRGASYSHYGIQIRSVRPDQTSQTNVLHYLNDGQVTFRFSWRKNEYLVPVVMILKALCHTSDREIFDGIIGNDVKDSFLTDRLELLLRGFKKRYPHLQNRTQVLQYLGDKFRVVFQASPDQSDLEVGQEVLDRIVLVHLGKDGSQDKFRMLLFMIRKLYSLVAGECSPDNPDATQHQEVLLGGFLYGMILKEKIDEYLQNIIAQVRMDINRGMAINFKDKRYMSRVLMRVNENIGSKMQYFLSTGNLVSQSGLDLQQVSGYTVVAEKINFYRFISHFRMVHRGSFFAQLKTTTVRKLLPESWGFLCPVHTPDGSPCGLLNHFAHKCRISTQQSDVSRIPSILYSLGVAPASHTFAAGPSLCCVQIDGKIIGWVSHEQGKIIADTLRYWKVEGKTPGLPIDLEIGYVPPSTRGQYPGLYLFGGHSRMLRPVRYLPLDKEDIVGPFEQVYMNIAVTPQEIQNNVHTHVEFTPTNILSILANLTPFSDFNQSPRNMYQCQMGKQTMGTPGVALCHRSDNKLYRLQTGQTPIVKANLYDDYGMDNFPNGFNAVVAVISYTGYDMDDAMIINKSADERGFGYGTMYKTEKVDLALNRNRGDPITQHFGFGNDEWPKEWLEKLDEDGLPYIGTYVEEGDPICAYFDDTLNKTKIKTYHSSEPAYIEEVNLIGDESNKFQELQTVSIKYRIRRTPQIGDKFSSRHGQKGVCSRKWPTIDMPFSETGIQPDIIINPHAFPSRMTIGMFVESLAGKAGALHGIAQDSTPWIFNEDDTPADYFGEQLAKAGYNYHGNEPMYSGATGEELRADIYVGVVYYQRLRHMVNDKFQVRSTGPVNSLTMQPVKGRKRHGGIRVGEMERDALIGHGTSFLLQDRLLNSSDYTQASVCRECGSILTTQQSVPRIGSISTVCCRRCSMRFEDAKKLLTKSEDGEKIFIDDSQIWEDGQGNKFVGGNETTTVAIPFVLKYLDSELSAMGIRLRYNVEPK

T2: RNA polymerase I subunit AC40 (Saccharomyces cerevisiae, UniProt P07703 1-335)
T2 sequence: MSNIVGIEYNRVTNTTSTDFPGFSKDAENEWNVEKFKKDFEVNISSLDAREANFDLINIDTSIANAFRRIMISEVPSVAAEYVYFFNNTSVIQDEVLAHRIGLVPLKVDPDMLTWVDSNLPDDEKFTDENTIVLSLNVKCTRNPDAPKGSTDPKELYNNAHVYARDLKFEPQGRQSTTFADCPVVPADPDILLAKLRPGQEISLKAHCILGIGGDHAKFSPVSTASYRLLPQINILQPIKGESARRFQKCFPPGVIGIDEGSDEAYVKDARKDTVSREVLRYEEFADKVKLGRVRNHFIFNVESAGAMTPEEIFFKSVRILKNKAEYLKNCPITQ

B1: RNA polymerase I subunit A49 (natural protein)
chain: MSVKRSVSEIEIESVQDQPSVAVGSFFKGFRAPSDTTFDLYKKKKSEKDEFVLHGENERLEYEGYTDSSSQASNQYVVGLFNPEKKSIQLYKAPVLVSKVVSKSSKNLRGPKIKSKSDTRPSALRNALGEAFGTKKAKKAIADLERNRIDSDKLTDSAIDIVDSVRTASKDLPTRAQLDEITSNDRPTPLANIDATDVEQIYPIESIIPKKELQFIRVSSILKEADKEKKLELFPYQNNSKYVAKKLDSLTQPSQMTKLQLLYYLSLLLGVYENRRVNNKTKLLERLNSPPEILVDGILSRFTVIKPGQFGRSKDRSYFIDPQNEDKILCYILAIIMHLDNFIVEITPLAHELNLKPSKVVSLFRVLGAIVKGATVAQAEAFGIPKSTAASYKIATMKVPFKLPEMTRRGRGPRR
B2: RNA polymerase I subunit AC19 (natural protein)
chain: MTEDIEQKKTATEVTPQEPKHIQEEEEQDVDMTGDEEQEEEPDREKIKLLTQATSEDGTSASFQIVEEDHTLGNALRYVIMKNPDVEFCGYSIPHPSENLLNIRIQTYGETTAVDALQKGLKDLMDLCDVVESKFTEKIKSM
B3: RNA polymerase subunit Rpb5 (natural protein)
chain: MDQENERNISRLWRAFRTVKEMVKDRGYFITQEEVELPLEDFKAKYCDSMGRPQRKMMSFQANPTEESISKFPDMGSLWVEFCDEPSVGVKTMKTFVIHIQEKNFQTGIFVYQNNITPSAMKLVPSIPPATIETFNEAALVVNITHHELVPKHIRLSSDEKRELLKRYRLKESQLPRIQRADPVALYLGLKRGEVVKIIRKSETSGRYASYRICM
B4: RNA polymerase I subunit A43 (natural protein)
chain: MSQVKRANENRETARFIKKHKKQVTNPIDEKNGTSNCIVRVPIALYVSLAPMYLENPLQGVMKQHLNPLVMKYNNKVGGVVLGYEGLKILDADPLSKEDTSEKLIKITPDTPFGFTWCHVNLYVWQPQVGDVLEGYIFIQSASHIGLLIHDAFNASIKKNNIPVDWTFVHNDVEEDADVINTDENNGNNNNEDNKDSNGGSNSLGKFSFGNRSLGHWVDSNGEPIDGKLRFTVRNVHTTGRVVSVDGTLISDADEEGNGYNSSRSQAESLPIVSNKKIVFDDEVSIENKESHKELDLPEVKEDNGSEIVYEENTSESNDGESSDSD
B5: RNA polymerase I subunit A12.2 (natural protein)
chain: MSVVGSLIFCLDCGDLLENPNAVLGSNVECSQCKAIYPKSQFSNLKVVTTTADDAFPSSLRAKKSVVKTSLKKNELKDGATIKEKCPQCGNEEMNYHTLQLRSADEGATVFYTCTSCGYKFRTNN
B6: RNA polymerase I subunit A34.5 (natural protein)
chain: MSKLSKDYVSDSDSDDEVISNEFSIPDGFKKCKHLKNFPLNGDNKKKAKQQQVWLIKFPSNVDISKLKSLPVDFESSTTMTIDKHDYKIMDDTDIESSLTQDNLSNMTLLVPSESKESLKIASTAKDNAPLQFDKVFSVSETAKIPAIDYSKVRVPRKDVPKVEGLKLEHFATGYDAEDFHVAEEVKENKKEPKKRSHHDDEEESSEKKKKKKEKREKREKKDKKDKKKKHRD

Tests used:
Assay in all cases: cross-linking
[1] = biological target: RNA polymerase I subunit A190 (Saccharomyces cerevisiae, UniProt P10964 1-1664)
[2] = biological target: T1, RNA polymerase I subunit A135
[3] = biological target: B6
[4] = biological target: B1
[5] = biological target: T2, RNA polymerase I subunit AC40

Chain of RNA polymerase I subunit A190 (P10964 whole entry): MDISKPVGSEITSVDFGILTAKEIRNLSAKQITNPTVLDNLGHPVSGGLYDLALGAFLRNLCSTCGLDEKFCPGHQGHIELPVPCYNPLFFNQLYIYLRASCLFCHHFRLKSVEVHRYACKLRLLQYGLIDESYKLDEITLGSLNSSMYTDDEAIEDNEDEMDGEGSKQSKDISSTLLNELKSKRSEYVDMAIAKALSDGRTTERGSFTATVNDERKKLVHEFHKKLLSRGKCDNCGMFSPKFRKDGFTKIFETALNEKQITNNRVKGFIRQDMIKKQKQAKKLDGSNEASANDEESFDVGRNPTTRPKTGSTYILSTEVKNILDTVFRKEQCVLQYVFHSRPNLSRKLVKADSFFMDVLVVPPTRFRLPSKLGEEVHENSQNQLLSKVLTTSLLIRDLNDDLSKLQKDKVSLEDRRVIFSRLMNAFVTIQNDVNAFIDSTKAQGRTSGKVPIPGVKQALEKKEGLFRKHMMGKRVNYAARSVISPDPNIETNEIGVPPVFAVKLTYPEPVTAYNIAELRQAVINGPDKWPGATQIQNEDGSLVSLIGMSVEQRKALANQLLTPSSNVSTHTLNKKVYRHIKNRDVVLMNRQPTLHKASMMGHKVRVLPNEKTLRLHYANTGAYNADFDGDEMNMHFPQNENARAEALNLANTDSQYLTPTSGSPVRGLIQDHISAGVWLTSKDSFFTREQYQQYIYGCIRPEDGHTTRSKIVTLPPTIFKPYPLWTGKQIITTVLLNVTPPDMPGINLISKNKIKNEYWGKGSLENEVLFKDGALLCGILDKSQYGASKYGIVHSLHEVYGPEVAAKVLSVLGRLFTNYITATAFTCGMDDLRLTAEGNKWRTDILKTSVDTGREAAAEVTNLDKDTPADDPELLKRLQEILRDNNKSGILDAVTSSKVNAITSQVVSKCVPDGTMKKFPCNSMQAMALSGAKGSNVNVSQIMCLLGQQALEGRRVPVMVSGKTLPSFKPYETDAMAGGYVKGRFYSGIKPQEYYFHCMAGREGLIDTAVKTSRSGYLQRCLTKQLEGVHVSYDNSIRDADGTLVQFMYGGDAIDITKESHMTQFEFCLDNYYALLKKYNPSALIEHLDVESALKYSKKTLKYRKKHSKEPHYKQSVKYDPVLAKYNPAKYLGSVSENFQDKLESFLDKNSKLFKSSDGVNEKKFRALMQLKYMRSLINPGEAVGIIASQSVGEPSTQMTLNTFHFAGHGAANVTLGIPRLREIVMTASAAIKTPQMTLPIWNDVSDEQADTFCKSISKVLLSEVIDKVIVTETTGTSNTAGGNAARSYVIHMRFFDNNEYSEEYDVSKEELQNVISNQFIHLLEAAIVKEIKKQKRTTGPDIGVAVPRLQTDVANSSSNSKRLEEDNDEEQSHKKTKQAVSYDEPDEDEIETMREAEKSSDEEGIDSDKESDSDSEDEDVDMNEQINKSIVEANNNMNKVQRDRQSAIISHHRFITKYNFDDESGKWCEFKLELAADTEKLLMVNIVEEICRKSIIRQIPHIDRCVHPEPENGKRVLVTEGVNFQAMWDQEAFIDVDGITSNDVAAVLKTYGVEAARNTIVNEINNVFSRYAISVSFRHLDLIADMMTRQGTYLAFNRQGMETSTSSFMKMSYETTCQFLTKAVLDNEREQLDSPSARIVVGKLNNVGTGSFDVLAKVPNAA

Row | binding result [1] | binding result [2] | binding result [4] | Binder | other results
1 | binds | binds | – | B1 | –
2 | – | – | – | B2 | binding result [3]: binds
3 | – | – | binds | B3 | –
4 | – | – | binds | B4 | –
5 | binds | binds | – | B5 | –
6 | – | binds | binds | B6 | binding result [5]: binds
